In PMC5829230, “G-protein βγ subunits determine grain size through interaction with MADS-domain transcription factors in rice”:

Target: GST-OsMADS1 (Oryza sativa, UniProt Q10PZ9 1-257)
Test: EMSA; 10x and 50x unlabeled probe as competitor; LightShift Chemiluminescent EMSA Kit (Thermo 20148); buffer, salt, pH and temperature not stated
Conditions: protein: recombinant; tags: N-terminal GST (pGEX-4T-1); chain copies: 2; label: biotin; blunt

Chain of GST-OsMADS1 (Q10PZ9 whole entry): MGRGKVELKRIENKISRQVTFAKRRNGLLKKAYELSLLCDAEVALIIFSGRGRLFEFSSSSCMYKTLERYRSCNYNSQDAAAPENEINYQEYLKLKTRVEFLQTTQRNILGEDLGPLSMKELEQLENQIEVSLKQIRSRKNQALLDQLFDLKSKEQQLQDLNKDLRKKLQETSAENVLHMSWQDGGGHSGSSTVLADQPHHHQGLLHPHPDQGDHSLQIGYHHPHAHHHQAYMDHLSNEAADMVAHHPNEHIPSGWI

B1: MADS55-EMSA-probe (dsDNA)
DNA 1: AGGCAGTATCTATCTATTTATTGCGTATAAACTAAAT
DNA 2: ATTTAGTTTATACGCAATAAATAGATAGATACTGCCT
Q: Does B1 bind?
A: Result: binds
